# Data reported in the DeepSol protein solubility set.
# Assay: soluble on expression in E. coli; label from the status in PepcDB or PDB records
row,Sequence,soluble on expression in E. coli
1,MGSDKIHHHHHHMNDQKNAAQVGLGLRREMLSEFCESVPEAINFFEVAPENWMTLGGKFGRQFRELTEQHTFYCHGLSLSIGSPEPLDLAFVKNIKTFMDLHQIQIYSEHLSYCSGQGHLYDLMPIPFTDAAVKHVAARVKQVEDILERPLILENVSFYAAPGARMSELEFVNAVLQEADCKLLLDVNNIYVNSINHQYDADTFLQAMPTERIAYLHIAGHYKQAEDLLIDTHGAAINDPVWALLQRCYALHGVKPTLLERDFNVPTTAELLLELNQIHAYQAAAPSSHIQNSAHVVKRIA,not soluble
2,MGSDKIHHHHHHMNELTEFNARNDLDNELASTVSDILAKAIKEKGKASIAVSGGSTPKGFFSVLSQSDIDWSKVTITLADERWVPIDSEASNTRLVHENLLQNKAEKAKFFHLKQGDELTDETLEDLNVAASKILLPLDVLILGMGEDGHTASLFPCSDQITSGLDETNDAALLKVQPKTAPHQRISFTFASLMTSKNIFLHSCGEGKKTVLTQVLNGDDPFEMPIRAFLQHPSLNTQIFWAP,not soluble
3,MGSDKIHHHHHHMNESERKIVEEFQKETGINFKNEELLFRALCHSSYANEQNQAGRKDVESNEKLEFLGDAVLELFVCEILYKKYPEAEVGDLARVKSAAASEEVLAMVSRKMNLGKFLFLGKGEEKTGGRDRDSILADAFEALLAAIYLDQGYEKIKELFEQEFEFYIEKIMKGEMLFDYKTALQEIVQSEHKVPPEYILVRTEKNDGDRIFVVEVRVNGKTIATGKGRTKKEAEKEAARIAYEKLLKERS,soluble
4,MGSDKIHHHHHHMNETVSLETREVRFLSVFDFDGTLTYRDSFVPFLRFAFGNRVFVRRMLRMAGPSLAYLCRRIDRDDLKARLIATFLTDVPVHVLEERALAYQNRFWETLMRPHALTAVADQVSSGSTVTICSASPSLLLRPFAEKLGVHLIATELEVVDGVLTGRIVGRNCRRDEKVCRLERHYGPLTQYSLRAWGDSRGDTELLAAALERFWKPFR,not soluble
5,MGSDKIHHHHHHMNFFEIVNAHLSELSPNEQKLFDYVVTNMGQIKNQSIREVASATFVSTATFLRFVKKIGFSGFSEFTTVIKFTLINRQEAERTTPFVVQQKDYREEYLKNIGESIRVIQPDHLRQVVDRLAQHPDVFFFAKGVSKHAVAYIDYLYTMAGFKTHFPRDHDYRKQALTQVDNDALVFILTYKGSDGEMLDMMSQLVGRPVRPLLVSITEPDNNTIQNLSDINFYIFTDGVTVNGTDISSRISTISVMELILYQYVEDYGGRDFHFQRQLES,not soluble
6,MGSDKIHHHHHHMNFNELKTFVALVETKHFTKTADRLYISQPTVSLHLKHLEEHFGQSLIHRHTFNKTIEISEAGWIVYRHAKEILHQAIRLEQEIDELEGITRGTLRIAATHTIYEAMLEEMIHDFLLVYPDVSVDARVMNQEQVEQALLHYEIDLGMVEGLHRSHQIEAIPFATDRLRIIGHHHLVPEQATWIYREEGSAARLALETWLQTQAIVPKRIITVYSNRLIKQLIKNGTGISILSERLAGSLLESERFQTYDDSQIDPRMFQFITLKGETTRLSQKWINQHGGSD,not soluble
7,MGSDKIHHHHHHMNHLNDKVNEIKDNFYGLIGHAYLEKYITKPIVDEDKLRFLYTMLAEKLPKKDTKLFTLSALLVDAALEIHEAVSLHNIQTDPIKKNRQLNVLAGDYYSSLYYYLLADSRHLPIIQVFSHSIQEINEYKMKLYDGKNIDFDEVKNNVDKVDTFLLQNLAEHFQLTTWKKAISVFFHLKRLVHEREAWINGKATPLMKAIVTELFGSNRPVDELKKDDQLQVLELWEEKVEEGKDHLLEHVKALLPKFERFFVDHLNDLFGPDYIHEKVAEEG,not soluble
8,MGSDKIHHHHHHMNHNLTTLHPYPFAKMATLLADSTPAHSYDEIKLGIGEPKHAPPAFVLDVLRENLDKISHYPTTNGLFELRQTIAHWLEKRFFLNHVNPNTQVLPVMGTREAIFSIVQAVINHQTETISQTATLNQSPVVVMPNPFYQIYEGAAILAQATPYFIPCTADNGFKGDFRSVPKDVWMRTQLLFVCSPNNPTGSVMTMDDWEQLLRLSDQYGFIIASDECYSELYFDKAPIGLLQACAALGRHDFKNCLVFHSLSKRSNLPGLRSGFVAGDATILDSYLQYRTYQGCAMPIPHQLASIAAWEDEKHVAHNRALYQEKFALWMSELGALLDLRMPEAGFYFWIKAPEQFDGDDELFVKALYEHANIHALAGRYLSREVNGKNPGQGYVRIALVASVEESREAIRRIRQLLGA,not soluble
9,MGSDKIHHHHHHMNIAEIEVTHKVKEKEWKEFLSRSEYATVYHTPEWKKTLEESFGYKPYYLFVKDESDLIVGMLPLFYVKSKLTGNRLSSLPFSHISGPVGDKATKNFLISEAINLYKNLGASYLEIRDRVEDNRFLSKNMFSTYILELNPNIEEVWKQLHKGSVRRAIKKSEKSGVVVDTAKDIESLKEFYDLNCVGKRKIGVPCHPWKFFKNLFRFMNDYISLYVAKYQNNIIGGGIMIYYKDTVIYGYGAAHPHYLKLYPYNAFLWKSIKDACLSRYKYFDLGRAHYNVERGLMDFKRRWGTIEKKLYYSYYSKNKDLKILDMSGLKYRLGTKVIRKMPMPIYKKFSDRIFGSLG,not soluble
10,MGSDKIHHHHHHMNIDKLDYHSLIIFESISRHLNAGLVANELGMSISSVSRHLGILRDIFKDVLFIRRAQGFVLSDKAIQLLPYIKQLLHDYQVIKHNHIHFNPLTARGHFKIYAYNEFTYVINKVIHQYILPQAPNLTFEVRTLSSDCSRAIEHGEIDFAVVYERFKDHKIICEMFSPTEELFLIAKEGHAVFEDEFTLANLCQYDYFALDNYNDLPMPLLEQLGKTEGKAVNVLGATDNIAALSRHILDGRAISMSCNVFTREFYSLIKGIRTATLPSALTERLLKQITVGRTVGNYLIYSEINQSPTHHWLKQQLFNGIRDEWYLAMGR,not soluble
11,MGSDKIHHHHHHMNIETLMIKNPPILSKEDRLGSAFKKINEGGIGRIIVANEKIEGLLTTRDLLSTVESYCKDSCSQGDLYHISTTPIIDYMTPNPVTVYNTSDEFTAINIMVTRNFGSLPVVDINDKPVGIVTEREFLLLYKDLDEIFPVKVFMSTKVQTIYKEVRLDQAVKLMLRRGFRRLPVIDDDNKVVGIVTVVNAIKQLAKAVDKLDPDYFYGKVVKDVMVTNLVTIDELASVNRAAAEMIVKRIGSLLILNKDNTIRGIITERDLLIALHHILVMEKFKEKL,not soluble
12,MGSDKIHHHHHHMNILEKLFSLKRKVALVTGGGQGIGKAIAQALAAAGAAVLIMDINEETARRTVEEIKEKGGEADFYVGDVTKEEDCFGAVKKALDRWGKLDIGVNNAGIGDWCEAENYPVEKWKKVIDVNLVGVFLSAKAEFHAMKERKYGKIINIASMSGHIVNKPQKQTAYNASKAGVIHLTRSLAAEWAPYGIRVNSISPGYIRTPLIESPNVKDLVPLWLDMIPLGRLGEVDDLIGAAIFLASPASDYMTGHDLVIDGGYTVW,not soluble
13,MGSDKIHHHHHHMNILITGMAGFIGHAVAKRLAAEGHDIVGIDNLNDYYDVSLKQARLDDLAAWPNVRFERLDLADRAGMERLFADTRFERVIHLAAQAGVRYSLDNPHVYAQSNLVGHLNVLEGCRHQQVPHLIYASSSSVYGQNAQVPFSTADAVDHPISLYAATKKANELMTHSYSHLYGIPATGLRFFTVYGPWGRPDMAMFKFTRAILADEPLPVFNHGDLSRDFTYIDDIVEGVVRIMQAIPEADPDSPGASPDQSTAPFALYNIGHGSPVALMDFVHALERATGRTARCDFKPMQPGDVPRTWADTDALFEKVGYRPQVGVDEGVARFVEWYRSFHGI,not soluble
14,MGSDKIHHHHHHMNIQDYPDRDMLAIDLANHLAGELEATLFTHDSATLAVAGGTTPGPVFDVLCAADLDWHRVMVLPTDERCVPQDHSRANARLIAERLLVNRAASARYLPLYLPGAEPEDCLAEVEALLTPALPLSVLVLGMGEDMHTASLFAGMPGLAAALDADAPALAVARPETQPENRITLTAPVLNGALSKHLIIYGAAKRKALERAMSMHPEEAPIAAVLDGITVHWAE,not soluble
15,MGSDKIHHHHHHMNKANTVDTSTEAVERVAKEISGLASREAVSMIQGWEDAFELYLKAADQLSALAAERDTLANQVEDCARECAKLAEEIQRLQAQLAETRASLYALEKGVWRDGYPDKISGSEWFIALLEDNRRVVLRSLPEEHSYDYTTADDTYLAAWKIKRWMQFPDANFIAPDTIVHTTVERIEQIKEEARNAALEEAAEVVARIKKPTIPPMFMGQTRAEAYDMGQHNACESKAELIRTLKSEPAPHPDCPECSGSGMRDSGGVQPWGDHIDAPCDCENAPAPRQSVQKAADNLAKGLRSAGYFIPSSIIFDVMVQKKSAS,not soluble
16,MGSDKIHHHHHHMNKIFKCFPDGKFKVLTMSYDDGKLSDKKLVSIFNKYGIKGTFHINSGLIGSYNRLTKAEIKTLYSGHEVSAHTLTHPTIARCPMEQVTKEILMDRENLEEIVGYPVRGLSYPNGSYNDSIRNLLKYLGIEYSRIVGNSDSFDLPSDFTAWKATCHHNHNLMEHAKEFVFLYKKQYLYMMYVWGHSYEFDRDNNWHLIENFCSYISNKDDIWYATNIEIVDYKNVLDNLKFSAKSDFVYNPSAKSAWITVNDEIVEIKGGTQLKLS,not soluble
17,MGSDKIHHHHHHMNKVLNKESAPAYRLTPEWELYTSVVTTSLNNSFYEQEEERIERVRTLIGKCNPLFVAQLAAYARETMNLRSIPLVMAVELARIHQGDNLVKRVTARTVRRADEITELLACYQQANRRTGTKKLNRLSKQLQAGLQDAFNTFDAYQFAKYNRSAEVCLKDALFLVHPKAKDERQQEIFNGIVNDNLPVPYTWETELSALGQRTFATEEERRKAFRAKWEELIDSGKLGYMALLRNLRNILEAEVSADHILTVGKRLSSEKAVENSRQLPFRFLAAYRELSKTPSLYATMLMTALERAVQVSARNITGFDESTRVLIACDVSGSMQCPVSAKSKVLYYDIGLLLGMLLKSRCKQVMTGIFGDRWKIINLPDTGILSNVDAFYKREGEVGYSTNGYLVIKDLIDRKAQMDKIMMFTDCQLWNSHSDLQITDLWRKYKKICPAAKLYLFDLSGYGNTPLDITRDDVFLIAGWSDKIFDILSAIDKGNDALQEIKKIVV,not soluble
18,MGSDKIHHHHHHMNLLEVKSLKARFKRGGFALESVNLTLKKGECVSIVGESGSGKSFLAQLIVRLFPQGSVEVEEGEILFLGENLLDFSQERLEGVRGSEIGFVFQEPLISLNPLHTIEKQLAEAILLHRSLSREELKREIGALYASVGLEALKGRAKIYPHELSGGQRQRVMIAMALANSPKLLIADEPTTALDVSVQKQILDLLFRLKEERGVSLLLISHDLGVVRHYADKVYVMKGGKVVESASKEELFAHPKHPYTQALLSSLHLPLKESPPSRGEILLEAENLDLSFVLKKDWLGRPKEYLRALSSISLRLREGENLGIVGESGSGKSTLALALCKLLSFEGRLRMGHEEMAKMEESRFRPFRSMIQIVFQDPYGSLSPRLSIEEILREGLEVHFPAQKESFERRIIEALEGVGLESSYRYRYPNELSGGQRQRVAIARALILRPKILILDEPTSALDRSIEHQVVALLLELQKRYNLTYLCISHDLRVIGALSDRVAVMKGGRLIEEGETSLILQSPTHPYTQELIGSLLL,not soluble
19,MGSDKIHHHHHHMNLNALIDFMLVANNEGLGKASRASGISKATLSRRIADLEEQLGVRLIERSARGLKLTEAGEMLMARTEGPLGEVAEAMTATRDGVATPRGRLRVASPVLFSQLAMGRIGAGFYAAYPEVIIEVTAEDRLVDLVEEQFDVAIRINPDPDSRLVGRCFARDRLVVVAAPELPRPMPGAIRQTPAIVTSSFQPTHWKLDNGHLVLKPIPKLWFSSLMMVRDAAVAGGGAALIPQSIAWSQLASGQLVQWGTVSGAEPELWVLHTSRRLVSPKVRAFVDFICASNPDMSLVLKG,not soluble
